These are literature values, as cited in paper PMC8695629.

In data set [1] the target is DOT1L 10-mer peptide (Homo sapiens) (UniProt Q8TEK3).
The next data set has as its target CBX8 (Homo sapiens) (UniProt Q9HC52).
The target in another data set is BCOR (Homo sapiens) (UniProt Q6W2J9).
Data set [2] addresses DOT1L 7-mer peptide (Homo sapiens) (UniProt Q8TEK3). Kind of data set: fluorescence polarization. Background: In fluorescence polarisation assays a small probe gives low polarisation when free and higher when bound to something large.

Sequence of UniProt Q9HC52 (Q9HC52 whole entry A335V): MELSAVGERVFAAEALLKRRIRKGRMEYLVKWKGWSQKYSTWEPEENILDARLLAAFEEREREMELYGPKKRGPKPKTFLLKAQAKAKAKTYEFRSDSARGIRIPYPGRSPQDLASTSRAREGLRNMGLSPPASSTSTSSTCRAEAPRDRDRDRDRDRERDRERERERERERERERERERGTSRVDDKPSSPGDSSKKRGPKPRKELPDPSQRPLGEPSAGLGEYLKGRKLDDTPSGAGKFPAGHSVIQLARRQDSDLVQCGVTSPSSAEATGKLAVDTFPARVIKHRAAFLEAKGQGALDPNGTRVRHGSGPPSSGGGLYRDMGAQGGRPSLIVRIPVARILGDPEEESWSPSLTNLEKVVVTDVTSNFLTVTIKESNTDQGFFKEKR
Sequence of UniProt Q6W2J9 (Q6W2J9 whole entry): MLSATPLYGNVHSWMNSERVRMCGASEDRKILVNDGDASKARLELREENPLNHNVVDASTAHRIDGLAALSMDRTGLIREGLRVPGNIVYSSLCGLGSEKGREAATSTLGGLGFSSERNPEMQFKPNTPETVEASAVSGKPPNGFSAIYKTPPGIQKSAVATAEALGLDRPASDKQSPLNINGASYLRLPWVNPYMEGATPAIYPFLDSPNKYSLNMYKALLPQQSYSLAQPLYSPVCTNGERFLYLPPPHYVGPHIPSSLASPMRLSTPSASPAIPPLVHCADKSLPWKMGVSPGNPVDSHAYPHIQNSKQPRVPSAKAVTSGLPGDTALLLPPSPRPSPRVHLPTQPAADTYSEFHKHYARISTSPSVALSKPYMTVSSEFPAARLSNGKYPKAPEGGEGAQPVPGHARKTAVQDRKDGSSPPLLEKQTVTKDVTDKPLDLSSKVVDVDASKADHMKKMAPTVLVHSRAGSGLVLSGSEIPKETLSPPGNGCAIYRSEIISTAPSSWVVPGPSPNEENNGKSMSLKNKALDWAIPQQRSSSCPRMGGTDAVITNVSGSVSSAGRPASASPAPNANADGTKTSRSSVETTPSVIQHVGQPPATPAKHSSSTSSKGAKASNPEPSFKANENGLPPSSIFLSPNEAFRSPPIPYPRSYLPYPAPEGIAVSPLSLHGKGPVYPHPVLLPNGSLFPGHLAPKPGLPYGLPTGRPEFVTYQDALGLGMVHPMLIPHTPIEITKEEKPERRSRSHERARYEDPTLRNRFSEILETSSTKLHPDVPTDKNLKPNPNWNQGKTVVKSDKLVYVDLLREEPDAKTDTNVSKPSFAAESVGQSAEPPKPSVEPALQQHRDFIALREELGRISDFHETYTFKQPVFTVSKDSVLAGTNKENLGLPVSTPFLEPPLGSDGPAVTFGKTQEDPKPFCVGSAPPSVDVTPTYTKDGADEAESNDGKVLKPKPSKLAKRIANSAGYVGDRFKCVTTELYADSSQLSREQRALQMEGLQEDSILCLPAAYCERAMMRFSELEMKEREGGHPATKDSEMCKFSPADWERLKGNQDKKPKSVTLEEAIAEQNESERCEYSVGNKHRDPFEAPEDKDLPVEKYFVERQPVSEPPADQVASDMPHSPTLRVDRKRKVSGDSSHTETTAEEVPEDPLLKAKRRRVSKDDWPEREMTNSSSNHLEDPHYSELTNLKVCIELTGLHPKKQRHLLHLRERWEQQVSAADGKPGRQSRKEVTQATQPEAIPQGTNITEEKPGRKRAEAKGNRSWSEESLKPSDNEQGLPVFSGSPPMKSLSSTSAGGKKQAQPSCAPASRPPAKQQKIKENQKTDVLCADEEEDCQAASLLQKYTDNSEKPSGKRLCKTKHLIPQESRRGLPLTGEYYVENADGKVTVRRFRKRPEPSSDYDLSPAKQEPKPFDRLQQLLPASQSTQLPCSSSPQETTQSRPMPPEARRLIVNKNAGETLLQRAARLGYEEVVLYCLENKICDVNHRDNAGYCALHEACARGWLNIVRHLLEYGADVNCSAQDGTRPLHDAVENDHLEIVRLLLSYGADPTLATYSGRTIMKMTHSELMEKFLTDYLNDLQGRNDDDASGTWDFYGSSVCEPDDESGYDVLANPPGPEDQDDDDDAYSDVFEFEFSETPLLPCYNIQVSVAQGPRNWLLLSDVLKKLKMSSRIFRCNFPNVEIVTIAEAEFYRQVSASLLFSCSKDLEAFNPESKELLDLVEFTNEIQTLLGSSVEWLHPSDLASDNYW

As to MLLT3 (AF9) AHD (from UniProt P42568), the Kd in data set [1] was 19 nM; with CBX8 (Homo sapiens), 12 nM; in the data set with BCOR (Homo sapiens), above 3000 nM. Besides, the inhibition constant Ki in data set [2] was 160 nM.

The term Kd denotes the free concentration of one partner at which half of the binding sites on the other are occupied at equilibrium, for simple one-to-one binding. For orientation: Ki means the equilibrium dissociation constant of an inhibitor or competing ligand from its target.
